Experimental data as given in US20250333501A1 (University of California, published 2025).
Substitutions are numbered along the chain they refer to.

T1: CLDN6 endogenously expressed by human cancer cell lines (ARK2, OVCA429) (human, UniProt P56747 1-220)
T1 construct: Untagged endogenous protein; also called Endogenous CLDN6+
T1 sequence: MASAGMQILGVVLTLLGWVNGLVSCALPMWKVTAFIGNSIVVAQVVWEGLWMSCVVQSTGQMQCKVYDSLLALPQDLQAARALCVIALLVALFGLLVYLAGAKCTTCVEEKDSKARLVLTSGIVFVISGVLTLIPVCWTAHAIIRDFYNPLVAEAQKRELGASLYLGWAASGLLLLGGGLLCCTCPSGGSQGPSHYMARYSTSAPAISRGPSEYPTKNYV

T2: human CLDN6 fused to GFP, expressed on engineered HEK293T cells (HEK293T-CLDN6-mGFP) (human, UniProt P56747 1-220)
T2 construct: It calls residues 1-21 a signal peptide; also called Claudin-6; HEK293T-CLDN6-mGFP Artificial CLDN6+; not shown: mGFP tag
T2 sequence: T1 sequence

B1: AB18-chim (antibody, V domains shown)
VH: QVQLKQSGPELEKPGASVKISCKASGYSFTGYNMNWVKQSNGKSLEWIGNIDPYYGGSTYNQKFTGKATLTVDKSSSTAYMQLKSLTSEDSAVYYCARERSGYVFSAMDYWGQGTSVTVSS
VL: NIMMTQSPSSLAVSAGEKVTMSCKSSQSVLFSSNQKNYLAWYQQKPGQSPRLLIYWASTRESGVPDRFTGSGSGTDFTLTISNVQAEDLAVYYCHQYLSSRTFGAGTKLELK
notes: 'chim' is the pre-humanized form (parental variable regions); also called pre-humanized (chimeric) form of AB18
B2: AB3-chim (antibody, V domains shown)
VH: EVKLEESGGGLVQPGGSMKLSCVASGFTFSNYWMNWVRQSPEKGLEWVAQIRLKSDNYATHYAESVKGRFTISRDDSKRSVYLQMNNLRAEDTGTYYCNDGPPSGCWGQGTTLIVSS
VL: DIQMTQSPASLSASVGETVTITCRISENIYSYLAWYQQKQGKSPQLLVYNAKILVEGVPSRFSGSGSGTQFSLKINSLQPEDFGNYYCQHHYTVPWTFGGGTKLEIK
notes: 'chim' is the pre-humanized form (parental variable regions); also called pre-humanized (chimeric) form of AB3
B3: AB9-3 (antibody, V domains shown)
VH: QVQLVQSGAEVKKPGASVKMSCKASGYRFTDYNMHWVRQAPGQGLEWIGYINPNNGGTNYAQKFQGRATLTVDTSTSTAYMELSSLRSEDTAVYYCARDYLYFFDCWGQGTLLTVSS
VL: DIQMTQSPSSLSASVGDRVTITCLASQTIGTWLAWYQQKPGKAPKLLIYAAASLADGVPSRFSGSGSGTDFTFTISSLQPEDFVTYYCQQLYSIPRTFGQGTKLEIK
notes: also called Humanized AB 9-3
B4: AB18-3 (antibody, V domains shown)
VH: QVQLVQSGAEVKKPGASVKVSCKASGYSFTGYNMNWVRQAPGQGLEWMGNIDPYYGGSTYAQKFQGRVTMTVDTSTSTVYMELSSLRSEDTAVYYCARERSGYVFSAMDYWGQGTLVTVSS
VL: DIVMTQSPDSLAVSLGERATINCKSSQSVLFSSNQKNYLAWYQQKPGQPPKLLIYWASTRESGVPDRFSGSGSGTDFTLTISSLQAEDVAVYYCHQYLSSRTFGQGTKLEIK
notes: Humanized; also called Humanized AB 18-3
B5: AB18-4 (antibody, V domains shown)
VH: B4 VH
VL: DIVMTQSPDSLAVSLGERVTMNCKSSQSVLFSSNQKNYLAWYQQKPGQPPKLLIYWASTRESGVPDRFSGSGSGTDFTLTISSVQAEDVAVYYCHQYLSSRTFGQGTKLEIK
notes: also called Humanized AB 18-4
B6: AB18-5 (antibody, V domains shown)
VH: B4 VH with V20I, M48I, V68A, M70L, V79A
VL: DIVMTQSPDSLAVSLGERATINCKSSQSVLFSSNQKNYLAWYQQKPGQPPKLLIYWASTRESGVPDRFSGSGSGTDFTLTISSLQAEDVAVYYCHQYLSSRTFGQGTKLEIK
notes: also called Humanized AB 18-5
B7: AB18-6 (antibody, V domains shown)
VH: B4 VH with V20I, M48I, V68A, M70L, V79A
VL: B5 VL
notes: also called Humanized AB 18-6
B8: AB3-3 (antibody, V domains shown)
VH: EVQLLESGGGLVQPGGSMRLSCAASGFTFSNYWMNWVRQAPGKGLEWVAQIRLKSDNYATHYADSVKGRFTISRDDSKNTVYLQMNSLRAEDTGVYYCNDGPPSGCWGQGTLLTVSS
VL: DIQMTQSPSSLSASVGDRVTITCRISENIYSYLAWYQQKPGKAPKLLVYNAKILVEGVPSRFSGSGSGTDFTLTISSLQPEDFGTYYCQHHYTVPWTFGQGTKLEIK
notes: also called Humanized AB 3-3
B9: AB3-4 (antibody, V domains shown)
VH: B8 VH with C106Y
VL: B8 VL with V48I, G84A
notes: also called Humanized AB 3-4
B10: AB3-2 (antibody, V domains shown)
VH: B8 VH
VL: B8 VL with V48I, G84A
notes: also called Humanized AB 3-2
B11: AB3-5 (antibody, V domains shown)
VH: B8 VH with C106Y
VL: B8 VL
notes: also called Humanized AB 3-5
B12: AB4-4 (antibody, V domains shown)
VH: QVQLVQSGAEVKKPGASVKMSCKASGYTFTSYTMHWIRQAPGQGLEWIGYINPSSTYTHYAQKFQGRATLTADTSTSTAYMELSSLRSEDTAVYYCSRGELGGFAYWGQGTLVTVSS
VL: DVVMTQSPLSLPVTLGQPASISCRSSQSLVHSDGNTYLNWYQQRPGQSPRLLIYKVSNRFSGVPDRFSGSGSGTDFTLKISRVEAEDVGVYYCSQSTHVPYTFGQGTKLEIK
notes: also called Humanized AB 4-4
B13: AB4-3 (antibody, V domains shown)
VH: B12 VH with M20V, I37V, I48M, A68V, L70M, A79V
VL: B12 VL
notes: also called Humanized AB 4-3
B14: AB4-5 (antibody, V domains shown)
VH: B12 VH with L45Q
VL: B12 VL
notes: also called Humanized AB 4-5
B15: AB1-8 (antibody, V domains shown)
VH: QVQLVQSGAEVKKPGASVKMSCKASGYTFTTYTMHWVRQAPGQGLEWIGFINPSSGYTDYAQKFQGRVTLTADTSTSTVYMELSSLRSEDTAVYYCANGDYYVAYWGQGTLVTVSS
VL: DIQLTQSPSSLSASVGDRVTMTCTASSSVSSTYFHWYQQKPGKAPKLWIYSTSNLASGVPSRFSGSGSGTDYTLTISSMQPEDAATYYCHQYHRSPLTFGQGTKLEIK
notes: Humanized; also called Humanized AB 1-8
B16: AB9-chim (antibody, V domains shown)
VH: EVQLQQSGPELVKPGASVKMSCKASGYRFTDYNMHWVKQSHGKSLEWIGYINPNNGGTNYNQNFKGKATLTVNKSSSTAYMELRSLTSEDSAAYYCARDYLYFFDCWGQGTTLTVSS
VL: DIQMTQSPASQSASLGESVTITCLASQTIGTWLAWYQQKPGKSPQLLIYAAASLADGVPSRFSGSGSGTRFSFKISSLQAEDFVSYYCQQLYSIPRTFGGGTKLEIK
notes: 'chim' is the pre-humanized form (parental variable regions); also called pre-humanized (chimeric) form of AB9

Biological target: T1, CLDN6 endogenously expressed by human …
Assay: FACS, 1.5 µg Ab, ARK2 cells
Experimental: (§1) FACS assays were also carried out to determine relative antigen binding strengths of the humanized antibodies (at either 1.5 μg or 0.3 μg) for binding to CLDN6 as expressed by the indicated cancer cell lines. 2nd Ab only was used as a negative control.

FACS fluorescence	Binder
9150	B1
29100	B2
1470	B3
1210	B4
1380	B5
1330	B6
1940	B7
54900	B8
1460	B9
33600	B10
2910	B11
1400	B12
1520	B13
1200	B14
17600	B15
4490	B16

Biological target: T1, CLDN6 endogenously expressed by human …
Assay: FACS, 0.3 µg Ab, ARK2 cells
Experimental: as §1

FACS fluorescence	Binder
3440	B1
17100	B2
1140	B3
1080	B4
1130	B5
1310	B6
1390	B7
1160	B8
1320	B9
14700	B10
1280	B11
1050	B12
1190	B13
967	B14
5810	B15
3510	B16

Biological target: T1, CLDN6 endogenously expressed by human …
Assay: FACS, 1.5 µg Ab, OVCA429 cells

FACS fluorescence	Binder
25500	B1
138000	B2
1260	B3
2700	B4
3220	B5
4270	B6
6750	B7
88700	B8
2960	B9
85900	B10
2950	B11
1200	B12
1160	B13
1350	B14
66000	B15
3570	B16

Biological target: T2, human CLDN6 fused to GFP, expressed on …
Assay: FACS, 1.5 µg Ab, 293T clone with human CLDN6
Procedure, shortened: (§2)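 Using a direct-binding flow cytometry method essentially as in the source, humanized antibodies were tested on engineered 293T clones expressing human CLDN6. Labelled antibody (Alexa Fluor 647 NHS ester) was added at 0.3 µg or 1.5 µg to EDTA-detached cells, which were kept on ice in the dark for 30 min, washed and read in channel FL4H of a BD Accuri C6. Fluorescence indicates relative antigen binding strength.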

FACS fluorescence	Binder
135000	B1
459000	B2
24600	B3
58900	B4
54400	B5
51900	B6
58500	B7
340000	B8
55800	B9
396000	B10
48600	B11
49000	B12
47800	B13
43400	B14
210000	B15
72000	B16

Biological target: T2, human CLDN6 fused to GFP, expressed on …
Assay: FACS, 0.3 µg Ab, 293T clone with human CLDN6
Procedure, shortened: as §2

FACS fluorescence	Binder
73800	B1
267000	B2
9500	B3
30400	B4
32400	B5
29400	B6
26900	B7
251000	B8
11600	B9
309000	B10
13300	B11
14100	B12
14300	B13
16800	B14
98800	B15
46700	B16
